This experiment deals with T1, biotin-conjugated KIFC1 (residues 1-50).
T1 sequence (peptide, biotin on the N-terminus): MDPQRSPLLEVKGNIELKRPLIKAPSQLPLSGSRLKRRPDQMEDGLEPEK
In words: BLI. A general note: BLI is a label-free optical method that tracks binding on a fibre tip over time.

B1: 6CD1-IMGT IgG (antibody, V domains shown)
VH: EVQLQQSGAELVKPGASVKLSCTASGFNIKDTYIHWVKQRPEQGLEWIGRIDPANGNTKYDPKFQGKATITADTSSNTAYLQLSSLTSEDTAVYYCARGYGSRSAMDYWGQGTSVTVS
VL: DIVLTQSPASLAVSLGQRATISCRASQSLFNSRTRKNYMLWYQQKPGQPPKLLIYLASNLESGVPARFSGSGSGTDFTLNIHPVEEEDAATYYCQHSRELPWTFGGGTKLEIK
What is called Kd is the concentration at which binding is half-saturated. Read a low Kd as tighter binding. A word on the koff: it is the rate constant with which the complex falls apart. Read a high koff as fast dissociation. In general, kon refers to a measure of how fast the partners come together. Low readings indicate slow association, high ones fast association. As for B1, the Kd amounted to 9.31 nM, the koff is 0.000682 s⁻¹ and the kon came to 73100 M⁻¹ s⁻¹.

B2: 6C407 IgG (antibody, V domains shown)
VH: EVQLQQSGAELVKPGASVKLSCTASGFNIKDTYIHWVKQRPEQGLEWIGRIDPANGNTKYDPKFQGKATITADTSSNTAYLQLSSLTSEDTAVYYCARGYGSRSAMDYWGQGTSVTVS
VL: DIVLTQSPASLAVSLGQRATISCRASKSVSTSGYSYMLWYQQKPGQPPKLLIYLASNLESGVPARFSGSGSGTDFTLNIHPVEEEDAATYYCQHSRELPWTFGGGTKLEIK
In turn, B2 came in with a Kd of 10.6 nM.

The record behind these values is article PMC12104855.
